{"source": "paper PMC4977154", "about": "“Structural mechanism of ligand activation in human calcium-sensing receptor” (eLife, 2016)", "proteins": {"B1": {"name": "wild-type human CaSR ECD (domain or fragment, UniProt P41180 20-612, looked up)", "chain": "YGPDQRAQKKGDIILGGLFPIHFGVAAKDQDLKSRPESVECIRYNFRGFRWLQAMIFAIEEINSSPALLPNLTLGYRIFDTCNTVSKALEATLSFVAQNKIDSLNLDEFCNCSEHIPSTIAVVGATGSGVSTAVANLLGLFYIPQVSYASSSRLLSNKNQFKSFLRTIPNDEHQATAMADIIEYFRWNWVGTIAADDDYGRPGIEKFREEAEERDICIDFSELISQYSDEEEIQHVVEVIQNSTAKVIVVFSSGPDLEPLIKEIVRRNITGKIWLASEAWASSSLIAMPQYFHVVGGTIGFALKAGQIPGFREFLKKVHPRKSVHNGFAKEFWEETFNCHLQEGAKGPLPVDTFLRGHEESGDRFSNSSTAFRPLCTGDENISSVETPYIDYTHLRISYNVYLAVYSIAHALQDIYTCLPGRGLFTNGSCADIKKVEAWQVLKHLRHLNFTNNMGEQVTFDECGDLVGNYSIINWHLSPEDGSIVFKEVGYYNVYAKKGERLFINEEKILWSGFSREVPFSNCSRDCLAGTRKGIIEGEPTCCFECVECPDGEYSDETDASACNKCPDDFWSNENHTSCIAKEIEFLSWTEPF", "modifications": "heavily glycosylated", "notes": "signal peptide in the construct; human calcium-sensing receptor (CaSR), extracellular domain, residues 1-612; The C-terminal Flag tag is told for 'each construct' in the paragraph on the mutants; the wild type was also purified on anti-Flag M2 and held by anti-Flag M2 in the scintillation proximity assay with L-Trp (not a protein-protein experiment); also called wt-CaSR ECD; extracellular domain …"}, "B2": {"name": "human CaSR ECD mutant carrying three glycosylation-site mutations (N386Q, S402N and N468Q) (domain or fragment, UniProt P41180 20-612, looked up)", "chain": "B1 chain with N367Q, S383N, N449Q", "modifications": "N-acetyl-glucosamine seen at Asn90, Asn287, Asn488, Asn541 of one protomer and Asn541 of the other", "notes": "signal peptide in the construct; human calcium-sensing receptor (CaSR), extracellular domain, residues 1-612; modelled residues 20-119, 135-359, 393-598 in one protomer and 22-122, 136-360, 392-602 in the other; Disulfide-tethered homodimer; cloned into the pFBDM vector; also called calcium-sensing receptor extracellular domain; form II crystal protein; source: sf9 insect cells infected with …"}, "B3": {"name": "human CaSR ECD mutant carrying two glycosylation-site mutations (N386Q, S402N), partially deglycosylated with Endo H (domain or fragment, UniProt P41180 20-612, looked up)", "chain": "B1 chain with N367Q, S383N", "modifications": "partially deglycosylated with Endo H; N-acetyl-glucosamine seen at Asn261, Asn287, Asn446, Asn468, Asn488, Asn541, Asn594; inter-subunit disulfide bond formed by C129", "notes": "signal peptide in the construct; human calcium-sensing receptor (CaSR), extracellular domain, residues 1-612; modelled residues 21-130 and 136-603; Disulfide-linked homodimer; cloned into the pFBDM vector; also called calcium-sensing receptor extracellular domain; form I crystal protein; source: sf9 insect cells infected with baculovirus, with kifunensine, secreted"}}, "key": {"[1]": {"target": "the molecule itself", "assay": "SEC; Superdex-200 size exclusion chromatography of secreted wild-type CaSR ECD; 20 mM Tris pH 8.0, 150 mM NaCl"}, "[2]": {"target": "the molecule itself", "assay": "SDS gel under reducing and non-reducing conditions; purified CaSR ECD mutant (N386Q, S402N, N468Q) after Superdex-200, with (+DTT) and without (-DTT) reducing agent"}, "[3]": {"target": "the molecule itself", "assay": "crystal structure; form I crystal, space group F222, one molecule per asymmetric unit, homodimer with a crystallographic symmetry-related molecule; 1.5 M Li2SO4, 100 mM Tris pH 8.5, 2 mM CaCl2, 20°C; inactive (open-open) state"}}, "note": "Positions count from the first letter of the chain named. Names and notes keep the numbering of the source."}
{"protein": "B1", "values": [{"measurement": "binding result", "setting": "[1]", "result": "binds"}]}
{"protein": "B2", "values": [{"measurement": "binding result", "setting": "[2]", "result": "binds"}]}
{"protein": "B3", "values": [{"measurement": "binding result", "setting": "[3]", "result": "binds"}]}
